Experimental data: patent US20230203138A1 (TRUSTEES OF COLUMBIA UNIVERSITY IN THE CITY OF NEW YORK, published 2023)

Key:
SARS-CoV Spike trimer = SARS-CoV Spike trimer (SARS-CoV, UniProt P59594 14-1190); assay: SPR (FIG. 37D)
[1] = molecular target: SARS-CoV-2 receptor binding domain (RBD) (SARS-CoV-2, UniProt P0DTC2 319-591); assay: ELISA (FIG. 10)

B1: monoclonal antibody 2-4 (antibody, V domains shown)
VH: QVQLVQSGAEVKKPGASVKVSCKASGYTFTGYYMHWVRQAPGQGLEWMGWINPNSGGTNYTQMFQGRVTMTRDTSISTAYMEVSRLRSDDTAVYYCARDRSWAVVYYYMDVWGKGTTVTVSS
VL: QSALTQPPSASGSPGQSVTISCTGTSSDVGGYNYVSWYQQHPGKAPKLMIYEVSKRPSGVPDRFSGSKSGNTASLTVSGLQAEDEADYYCSSYAGSNNLVFGGGTKLTVL
binding result (SARS-CoV Spike trimer): no binding

B2: monoclonal antibody 2-30 (antibody, V domains shown)
VH: QVQLVESGGGVVQPGRSLRLSCAASGFTFSSYTMHWVRQAPGKGLEWVAAISYDGNNKYYADSVKGRFTISRDNSKNTLYLQMNSLRAEDTAVYYCARSILYGGGMDVWGQGTTVTVSS
VL: DIQLTQSPSSLSASVGDRVTITCRASQGISSYLAWYQQKPGQAPKLLIYAASTLQSGVPSRFSGSGSGTDFTLTISSLQPEDFATYYCQQLNSYPLTFGGGTKVEIK
binding result [1]: binds

B3: monoclonal antibody 4-20 (antibody, V domains shown)
VH: QVQLLQSGAEVKKPGASVKVSCKASGYSFTSYYMHWVRQAPGQGLEWMGIINPSGGGTTYAQKFQGRVTMTRDTSTSTVYMELSSLRSEDTAVYYCARPGGGSYQEFDYWGQGTLVTVSS
VL: DIQMTQSPSSLSASVGDRVTITCRASQSISSYLNWYQQKPGKAPKLLISAASSLQSGVPSRFSGSGSGTDFTLTISSLQPEDFATYYCQQSYNTLQVTFGGGTKVEIK
binding result [1]: binds

B4: monoclonal antibody 2-7 (antibody, V domains shown)
VH: QITLKESGPTLVKPTQTLTLTCTFSGFSLSTSGVGVGWIRQPPGKALEWLALIYWDDDKRYSPSLKSRLTITKDTSKNQVVLTMTNMDPVDTATYYCAHHKIERIFDYWGQGTLVTVSS
VL: QSALAQPASVSGSPGQSITISCTGTSSDVGAYNYVSWYQQHPGKAPKLMIYDVSKRPSGVSNRFSGSKSGNTASLTISGLQAEDEADYYCSSYTTSSTVFGGGTKLTVL
binding result [1]: binds

B5: monoclonal antibody 1-20 (antibody, V domains shown)
VH: EVQLVESGGGLIQPGGSLRLSCAASGLTVSSNYMSWVRQAPGKGLEWVSVIYSGGSTFYADSVKGRFTISRDNSKNTLYLQMNSLRAEDTAVYYCARDLFYYGMDVWGQGTTVTVSS
VL: DIQLTQSPSFLSASVGDRVTITCRASQGISSYLAWYQQKPGKAPKLLIYAASTLQSGVPSRFSGSGSGTEFTLTISSLQPEDFATYYCQQLNSYPCFGPGTKVDIK
binding result [1]: binds
